The nature of this series: protein stability index of a GFP-peptide fusion (GPS, HEK-293T) (PSI 1-6); higher = more stable.
Where [1] appears, read: treatment: DMSO, c terminus: a fixed tail appended.
The mark [2] stands for this setting: treatment: MLN4924 1 uM, 8 h, c terminus: a fixed tail appended.

± gives the standard deviation.
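Note: 24-mer peptide tiles fused after GFP, lentivirally expressed, FACS-sorted into six equal bins by GFP/DsRed ratio, decoded by Illumina sequencing, PSI is the read-weighted mean bin number.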

Sequence NATAPRSPSHSPEHRRTARRTPPG [ELOA2] returned a protein stability index under setting [1] of 5 ± 0.15 and a protein stability index under setting [2] of 5.2 ± 0.36.
The corresponding values for LCKLFPFLQKSSVGITVLNLCALS [EDNRA] are 2.47 ± 0.18 and 2.72 ± 0.57.
RGNHESRQITQVYGFYDECLRKYG [PPP2CA]: the protein stability index runs as follows: under setting [1], 2.75 ± 0.4; under setting [2], 2.59 ± 0.19.
Take PDGGGPWLEDEPGRGAQGENERVR [ZSWIM9]: the protein stability index is, setting by setting: under setting [1], 5.41 ± 0.43; under setting [2], 5.5 ± 0.3.
Turning to DCLKKFNARRKLKGAILTTMLATR [CAMK2D], the protein stability index was 3.04 ± 0.78 under setting [1] and 3.49 ± 0.37 under setting [2].
As to WQVLKTHPGDPRFQCSLWHLYPL [POLD4], the protein stability index (treatment: DMSO, c terminus: native) was determined as 2.42 ± 0.62 and the protein stability index (treatment: MLN4924 1 uM, 8 h, c terminus: native) amounted to 2.14 ± 0.33.
Take LTVQFVQGIFVEKYDPTIEDSYRK [RAP1B]: the protein stability index runs as follows: under setting [1], 2.17 ± 0.47; under setting [2], 2.1 ± 0.57.
The corresponding values for HSDHSSEMSLPEVQKDKYPEEFSL [SPATS1] are 5.3 ± 0.29 and 5.26 ± 0.29.
Taken in the same sequence, the figures for CGDGNTETHRAPDLVQWTRHMEAV [SOAT2] were 3.55 ± 0.044 and 3.48 ± 0.31.
The corresponding values for LGALHTSSKPTALPSASSAYFPGQ [SASS6] are 3.59 ± 0.29 and 3.67 ± 0.45.
On to IQASAGVISKKAKVKVPQKTAGKE [ZNF75A], for which the protein stability index by setting is: under setting [1], 4.6 ± 0.16; under setting [2], 4.79 ± 0.27.
Regarding AIQYALNIAFSEAEGARPLRENVP [MATN2], the protein stability index by setting is: under setting [1], 2.36 ± 0.21; under setting [2], 2.08 ± 0.23.
As for ACDNGLNVRGGKPDDITVLLSIVA [PPTC7], the protein stability index reads like this: under setting [1], 2.32 ± 0.59; under setting [2], 2.16 ± 0.45.
On to RRDEQDDDDKGDSKETRLTLMEEV [GOLPH3], for which the protein stability index worked out at 5.58 ± 0.23 under setting [1] and 5.51 ± 0.2 under setting [2].
The corresponding values for PEENYPSLQMSSAEMPHTETVSPL [NANOGP8] are 5.25 ± 0.12 and 5.28 ± 0.18.
The corresponding values for GNMFPTIGDVHLAPFTDEQLYMEQ [CARM1] are 3.93 ± 0.27 and 4.12 ± 0.19.
The corresponding values for AHDNSEELERARELKEKEATLCLE [ANKRD44] are 5.58 ± 0.21 and 5.45 ± 0.26.
Turning to PDVTRVGLLQYGSTVKNEFSLKTF [MATN2], the protein stability index was 2.94 ± 0.23 under setting [1] and 2.85 ± 0.44 under setting [2].
The corresponding values for SHSRERPYKCVQPDCGKAFVSRYK [PLAGL1] are 3.34 ± 0.23 and 3.37 ± 0.17.
The corresponding values for GAHFPQVPGGAVRVAAAAGSGPSP [PI4K2A] are 4.53 ± 0.14 and 4.48 ± 0.088.
The corresponding values for YTGPSSSGRFAGREWYYGNVTRHQ [NCK2] are 2.35 ± 0.31 and 2.65 ± 0.58.
Regarding VGLAAVNSMPVDNRNHNEGMVTRC [CHGB], the protein stability index runs as follows: under setting [1], 4.27 ± 0.23; under setting [2], 4.3 ± 0.37.
Regarding GKGFRHSSSLAQHQRKHAGEKPFE [ZNF8], the protein stability index reads like this: under setting [1], 4.82 ± 0.21; under setting [2], 4.69 ± 0.28.
Taken in the same sequence, the figures for GTETHGLVQVTLLDTVELATYCVR [PTPRD] were 2.39 ± 0.22 and 2.55 ± 0.51.
As for RWNPWSTEVPYATFTEHPMKYTSE [TPRG1], the protein stability index was 3 ± 0.6 under setting [1] and 2.74 ± 0.24 under setting [2].
For the sequence LAWASYDQTGKEVADRWYSEIKNY [GLIPR2], the protein stability index is, setting by setting: under setting [1], 2.87 ± 0.5; under setting [2], 3.05 ± 0.23.
Consider QTRMAVSLTAAETLALQGTQGQEK [ZNF232], for which the protein stability index runs as follows: under setting [1], 5.15 ± 0.24; under setting [2], 4.98 ± 0.21.
Turning to TYLCERCQPRNLDKERAVLLQRRK [KMT2E], the protein stability index was 2.57 ± 0.48 under setting [1] and 3.32 ± 0.54 under setting [2].
The corresponding values for YMDTKLLVARFLEQSSCTMTPDIH [FAM189A2] are 2.15 ± 0.45 and 2.18 ± 0.084.
Taken in the same sequence, the figures for EQEPIGTDLDAVRTPEPLEEFPKR [MYBL2] were 5.57 ± 0.2 and 5.18 ± 0.46.
As for CSQLLESSYFDSFQEAQIKRKARN [CDKL4], the protein stability index was 3.51 ± 0.56 under setting [1] and 3.528 ± 0.023 under setting [2].
The corresponding values for KRANAAFLIGAYAVIYLKKTPEEA [CDC14A] are 2.38 ± 0.57 and 2.21 ± 0.22.
Taken in the same sequence, the figures for LNEDTIQDVVQAADLLLLTDLKTL [GAN] were 3.03 ± 0.31 and 3.16 ± 0.44.
Taken in the same sequence, the figures for LRVWDMFFCEGVKIIFRVGLVLLK [TBC1D10A] were 2.6 ± 0.38 and 2.37 ± 0.29.
For the sequence SFSEEGAVGYSSDSETLDLEEAEG [NFE2L1], the protein stability index was found to be 5.75 ± 0.38 under setting [1] and 5.18 ± 0.5 under setting [2].
The corresponding values for IESAHRSRIKVLETSYQQREERLR [FBF1] are 3.85 ± 0.15 and 3.82 ± 0.33.
The corresponding values for AFVLSSNSLKHCTELELFKATCRW [KLHL13] are 2.38 ± 0.55 and 2.23 ± 0.52.
DPGVQELEALIDTIQKQLKDHSCK [EFHC1]: the protein stability index under setting [1] came to 3.93 ± 0.28 and the protein stability index under setting [2] was found to be 3.97 ± 0.25.
As to VDLNRNFPDLNTYIYYNEKYGGPN [CPN1], the protein stability index under setting [1] was determined as 2.64 ± 0.18 and the protein stability index under setting [2] turned out to be 2.53 ± 0.52.
The corresponding values for AMPMQDIKMILKMVQLDSIEDLEV [PRAME] are 2.25 ± 0.22 and 2.25 ± 0.59.
Regarding AVDAGDPAVEACENRRKVLYQRAP [TCF25], the protein stability index runs as follows: under setting [1], 4.62 ± 0.21; under setting [2], 5.02 ± 0.22.
With IDKGDESWVTDMCKVGASSDPCGQ [PNLIPRP1], the protein stability index under setting [1] worked out at 4.52 ± 0.48 and the protein stability index under setting [2] was found to be 4.66 ± 0.36.
The corresponding values for GNPRALSFVLSSLQLGEGVEFDVL [OAS1] are 2.29 ± 0.22 and 2.12 ± 0.32.
Take EFMLLPANQLIDIISSDELNVRSE [KLHL20]: the protein stability index by setting is: under setting [1], 3.71 ± 0.37; under setting [2], 3.38 ± 0.44.
DKVLGTFEFDETSFWNSSHPRGWN [KLHDC2]: the protein stability index by setting is: under setting [1], 2.93 ± 0.45; under setting [2], 3.23 ± 0.61.
In the case of ALEAAVHVQKLSQECLKQLAIKKQ [TRIM14], the protein stability index runs as follows: under setting [1], 3.91 ± 0.16; under setting [2], 3.54 ± 0.52.
Regarding TQQWTAICPLKERRFGAVACGVAM [GAN], the protein stability index is, setting by setting: under setting [1], 2.83 ± 0.37; under setting [2], 2.52 ± 0.55.
Regarding KRKVDTGGFLSESKDCKPPVYLLL [MYBL2], the protein stability index is, setting by setting: under setting [1], 2.01 ± 0.51; under setting [2], 2.61 ± 0.72.
Take RYHNSHPLRERARKLSQGILIIRF [YJU2B]: the protein stability index runs as follows: under setting [1], 3.08 ± 0.35; under setting [2], 2.67 ± 0.45.
The corresponding values for EQPVPPTPATPEDPAPLWGPPPAQ [EMID1] are 4.92 ± 0.38 and 5.32 ± 0.22.
Taken in the same sequence, the figures for YLLQFARKPVEAESVEGVVRILLE [INTS4] were 2.19 ± 0.24 and 2.27 ± 0.25.
As for DLIDRGWRRSGKYVYKPVMNQTCC [ATE1], the protein stability index runs as follows: under setting [1], 2.26 ± 0.14; under setting [2], 2.23 ± 0.23.
As for GLMVTCGTDRIVKIWDMTPVVGCS [WDFY1], the protein stability index reads like this: under setting [1], 2.29 ± 0.21; under setting [2], 2.18 ± 0.22.
The corresponding values for KSKASFLLLASGLVITDFFGHLIN [PTGFR] are 3.11 ± 0.27 and 2.88 ± 0.57.
The corresponding values for LNSEQAEQLERINDALSCEYECRR [FAM98B] are 4.54 ± 0.29 and 4.66 ± 0.11.
Taken in the same sequence, the figures for QLSELRSEMECQNQEYKMLLDIKT [KRT13] were 4.09 ± 0.12 and 4 ± 0.29.
As for CVRRRYSDFEWLKNELERDSKIVV [SNX12], the protein stability index worked out at 2.7 ± 0.17 under setting [1] and 2.62 ± 0.49 under setting [2].
Consider HILAAEQLSRDSTLGGKAFHITND [NSDHL], for which the protein stability index turned out to be 3.39 ± 0.1 under setting [1] and 3.49 ± 0.28 under setting [2].
TKMWHPNIYENGDVCISILHPPVD [UBE2R2]: the protein stability index by setting is: under setting [1], 2.11 ± 0.34; under setting [2], 2.23 ± 0.055.
The corresponding values for EAAKGGHTSVVCYLLDYPNNLLSA [ANKRD17] are 2.02 ± 0.57 and 2.06 ± 0.47.
As for EEAQPMAAPEGKRSLANGPNAGEQ [EID1], the protein stability index was determined as 5.16 ± 0.34 under setting [1] and 5.48 ± 0.31 under setting [2].
Taken in the same sequence, the figures for VSHVGWDPQNGFDVNNLDPDLRSL [WAS] were 3.9 ± 0.24 and 3.98 ± 0.3.
As for MAYAKLMLTVMTKYQANITETQRL [FANCE], the protein stability index is, setting by setting: under setting [1], 3.16 ± 0.75; under setting [2], 2.95 ± 0.52.
The corresponding values for RVQGGCYRFDSSSCSSEDNLSLVC [DRICH1] are 2.58 ± 0.43 and 2.62 ± 0.32.
The corresponding values for PWLCGESFTLADVSLAVTLHRLKF [GDAP1] are 2.65 ± 0.43 and 2.35 ± 0.41.
EPLEPEVKYVGNMHGNEALGRELM [CPN1]: the protein stability index was determined as 4.63 ± 0.088 under setting [1] and 4.82 ± 0.18 under setting [2].
The corresponding values for HNIVHVHFDATRGWLLTSGTDKVI [WDFY2] are 2.26 ± 0.45 and 2.25 ± 0.15.
For the sequence PELNNNQYNRSSNSNGGNLNSPPG [CDC14A], the protein stability index is 4.98 ± 0.15 under setting [1] and 4.84 ± 0.27 under setting [2].
Consider LPDNYEIIDSSLEDITYVLKPTFT [USP39], for which the protein stability index runs as follows: under setting [1], 2.87 ± 0.39; under setting [2], 2.8 ± 0.47.
The corresponding values for KKMSCQQFIANLDQLNDGQDFAKD [PSD2] are 4.41 ± 0.22 and 4.4 ± 0.2.
LANNQCMATESVDHELGRCTDSVV [EHMT1] had a protein stability index under setting [1] of 4.74 ± 0.093 and a protein stability index under setting [2] of 4.71 ± 0.074.
With LGKIFDLIGLPPEDDWPRDVSLPR [CDK4], the protein stability index reads like this: under setting [1], 2.34 ± 0.5; under setting [2], 2.42 ± 0.13.

Values taken from the supplement of paper PMC10567573.
